From publication doi:10.1101/2021.09.24.461537 (bioRxiv, 2021)
Each block holds one molecule with its values, some of them ahead of it.

What was measured:
Assay in all cases: ITC
[1] = target: Drosophila Su(H) (98-523) WT (Drosophila) (UniProt P28159)
mouse Rbpj (53-474) WT = mouse Rbpj (53-474) WT (mouse, UniProt P31266 53-474)
mouse Rbpj (53-474) E89G = mouse Rbpj (53-474) E89G (mouse, UniProt P31266 53-474, E89G)
[2] = target: mouse Rbpj (53-474) K195E (mouse, UniProt P31266 53-474, K195E)
Chain of mouse Rbpj (53-474) K195E (P31266 53-474 K195E): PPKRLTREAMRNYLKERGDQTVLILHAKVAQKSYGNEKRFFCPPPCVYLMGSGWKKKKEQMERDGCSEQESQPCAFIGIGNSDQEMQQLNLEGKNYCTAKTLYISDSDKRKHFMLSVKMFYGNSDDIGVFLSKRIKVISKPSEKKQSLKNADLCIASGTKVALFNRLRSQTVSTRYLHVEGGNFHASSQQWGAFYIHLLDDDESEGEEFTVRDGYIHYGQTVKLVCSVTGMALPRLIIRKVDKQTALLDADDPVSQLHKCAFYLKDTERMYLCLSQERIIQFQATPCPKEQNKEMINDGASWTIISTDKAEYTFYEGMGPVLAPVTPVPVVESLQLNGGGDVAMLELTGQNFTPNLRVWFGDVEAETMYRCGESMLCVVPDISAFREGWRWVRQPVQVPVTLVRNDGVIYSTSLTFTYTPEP

Chain of mouse Rbpj (53-474) WT (P31266 53-474): as the sequence (P31266 53-474 K195E) above, with E143K counted along it
Chain of mouse Rbpj (53-474) E89G (P31266 53-474 E89G): as the sequence (P31266 53-474 K195E) above, with E37G, E143K counted along it

Kd [1]: 187 nM
Molecule: Drosophila Notch RAM domain peptide (residues 1763-1790)

Kd (mouse Rbpj (53-474) WT): ~5 nM | Kd (mouse Rbpj (53-474) E89G): ~5 nM | Kd [2]: 21 nM
B1: SHARP residues 2776-2833 (domain or fragment)
chain: RASANENSRFHPGSMPVIDDRPADAGSGAGLRVNTSEGVVLLSYSGQKTEGPQRISAK

Kd (mouse Rbpj (53-474) WT): ~20 nM | Kd (mouse Rbpj (53-474) E89G): ~20 nM | Kd [2]: ~20 nM
Molecule: VLLSRKRRRQHGQLWFPEGFKVSEASKK [Notch1 RAM domain peptide (human Notch1 residues 1754-1781)]
